# In paper PMC10345191 (NPJ Vaccines, 2023):
# B1: PGT122 Fab (Fab, V domains shown)
# VH: QVHLQESGPGLVKPSETLSLTCNVSGTLVRDNYWSWIRQPLGKQPEWIGYVHDSGDTNYNPSLKSRVHLSLDKSKNLVSLRLTGVTAADSAIYYCATTKHGRRIYGVVAFKEWFTYFYMDVWGKGTSVTVSS
# VL: APTFVSVAPGQTARITCGEESLGSRSVIWYQQRPGQAPSLIIYNNNDRPSGIPDRFSGSPGSTFGTTATLTITSVEAGDEADYYCHIWDSRRPTNWVFGEGTTLIVL
# notes: source: Freestyle 293F cells, serum-free, purified (HiTrap KappaSelect, Mono S)
# Tests used:
# [1] = molecular target: T1, EDC cross-linked ConM SOSIP soluble gp140 Env trimer (GMP) (HIV-1 (group M consensus)); assay: BLI; conditions: both partners purified
# T1 construct: copies: 3 + 3
# [2] = molecular target: T2, ConM SOSIP soluble gp140 Env trimer, unmodified (GMP) (HIV-1 (group M consensus)); assay: BLI; conditions: both partners purified
# T2 construct: copies: 3 + 3
binder,measurement,setting,value
B1,Kd,[1],< 1 pM
same,koff,[1],< 1e-07 s⁻¹
same,Kd,[2],< 1 pM
same,koff,[2],< 1e-07 s⁻¹
